# Measured values taken from publication PMC4283936.
# Target: PhoP (Mycobacterium tuberculosis, UniProt P71814 1-247)
# Assay: ITC
Binder,binding result,Kd [nM]
Rv3143 (dsDNA) DNA 1: AACCGCACAGCCCTCTAACCACTGCTCG DNA 2: CGAGCAGTGGTTAGAGGGCTGTGCGGTT,no binding,
Rv0964c (dsDNA) DNA 1: GCGCGCACGGCACACGCACCGCATCGGC DNA 2: GCCGATGCGGTGCGTGTGCCGTGCGCGC,,4350 ± 189
cfp2 (dsDNA) DNA 1: TCGCTCACAGCTACGACACAGACTTGCC DNA 2: GGCAAGTCTGTGTCGTAGCTGTGAGCGA,,21.4 ± 1.6
sirA (dsDNA) DNA 1: CGTCTCCCAGCGGATTCCCGGGTCGGCC DNA 2: GGCCGACCCGGGAATCCGCTGGGAGACG,,332 ± 17
espA -215 (dsDNA) DNA 1: CGCATTGTCGCAGCGCAGTTGCAGGAGGGCAA DNA 2: TTGCCCTCCTGCAACTGCGCTGCGACAATGCG,,1590 ± 50
cadI (dsDNA) DNA 1: CGGTACACAGCGCTTGCAGGGCTTCAGG DNA 2: CCTGAAGCCCTGCAAGCGCTGTGTACCG,,403 ± 20
Rv3881c (dsDNA) DNA 1: ATGGTCACAGTCGGGCCACAGTTCGAG DNA 2: CTCGAACTGTGGCCCGACTGTGACCAT,,714 ± 51
Rv1517 (dsDNA) DNA 1: CATTTTTCAGCAATTTCTCAGTAACGCT DNA 2: AGCGTTACTGAGAAATTGCTGAAAAATG,no binding,
Rv0520 (dsDNA) DNA 1: GCCCGCACAGCCACGCCGTAGCACCGGC DNA 2: GCCGGTGCTACGGCGTGGCTGTGCGGGC,,472 ± 20
fadD21 (dsDNA) DNA 1: CCTGTTTCAGCACATGCACAGCATTGCA DNA 2: TGCAATGCTGTGCATGTGCTGAAACAGG,,50.3 ± 4.3
devR -116 (dsDNA) DNA 1: CAGCTGTTCGTCGCGGACTCACACTCCGCGCAC DNA 2: GTGCGCGGAGTGTGAGTCCGCGACGAACAGCTG,no binding,
ptrBa -244 (dsDNA) DNA 1: ATCTTCACACCGGACTCGTCGCGGTACT DNA 2: AGTACCGCGACGAGTCCGGTGTGAAGAT,no binding,
Rv3877 (dsDNA) DNA 1: CTCGGCGCAGCGCGCGCTCAGCGACGCC DNA 2: GGCGTCGCTGAGCGCGCGCTGCGCCGAG,,1150 ± 66
pks3 -236 (dsDNA) DNA 1: CGACGTCTGGTAGCGGCATGGCAACGGCCTGTG DNA 2: CACAGGCCGTTGCCATGCCGCTACCAGACGTCG,,130 ± 11
phoP -55 (dsDNA) DNA 1: AGACTACTGGCAACGAGCTTTCAGGAATTACAC DNA 2: GTGTAATTCCTGAAAGCTCGTTGCCAGTAGTCT,,104 ± 10
Rv3312a (dsDNA) DNA 1: TGGGTCACAGCGAGTAATCAGCAAGTTC DNA 2: GAACTTGCTGATTACTCGCTGTGACCCA,,160 ± 8
pks2 (dsDNA) DNA 1: AAAGACACAGCTACATCGAAGGATTGCT DNA 2: AGCAATCCTTCGATGTAGCTGTGTCTTT,,154 ± 12
cyp123 (dsDNA) DNA 1: AGATCCACCGCCGCATCACATCGGCGAT DNA 2: ATCGCCGATGTGATGCGGCGGTGGATCT,no binding,
PE8 (dsDNA) DNA 1: CAGATCACACCGCCATGTCAGCCGCCAA DNA 2: TTGGCGGCTGACATGGCGGTGTGATCTG,no binding,
phoP -64 (dsDNA) DNA 1: GACTGTTAGCAGACTACTGGCAACGAGCTTTC DNA 2: GAAAGCTCGTTGCCAGTAGTCTGCTAACAGTC,no binding,
aroG (dsDNA) DNA 1: TTCGTCTCATCACGTCCACAGACGATGC DNA 2: GCATCGTCTGTGGACGTGATGAGACGAA,,1160 ± 41
icl -350 (dsDNA) DNA 1: GGTTGGTCGACCGCGCTGTTACAACGCTCAC DNA 2: GTGAGCGTTGTAACAGCGCGGTCGACCAACC,no binding,
icl -301 (dsDNA) DNA 1: CCCAAGGCAGTCGCCTCGCTGTTCAATCTGT DNA 2: ACAGATTGAACAGCGAGGCGACTGCCTTGGG,no binding,
fas (dsDNA) DNA 1: CGGCGTAGAGCGAATTCCCAGCATAACG DNA 2: CGTTATGCTGGGAATTCGCTCTACGCCG,,144 ± 6
icl +20 (dsDNA) DNA 1: ACCCCGAAGAGCGCGGAGCAGATCCAGCAGG DNA 2: CCTGCTGGATCTGCTCCGCGCTCTTCGGGGT,no binding,

Binder,binding result,Kd [nM]
fbpA (dsDNA) DNA 1: ATACTGACAGCAAGATCACAATTGAGCC DNA 2: GGCTCAATTGTGATCTTGCTGTCAGTAT,,56.5 ± 2.6
papA4 (dsDNA) DNA 1: AGTATCACTGCCCGATCACCGGTCGCCC DNA 2: GGGCGACCGGTGATCGGGCAGTGATACT,no binding,
icl -343 (dsDNA) DNA 1: GACCGCGCTGTTACAACGCTCACATATGTGG DNA 2: CCACATATGTGAGCGTTGTAACAGCGCGGTC,no binding,
PPE50 (dsDNA) DNA 1: CTTTTCACAGCAAAGTCCCAGAAATGGC DNA 2: GCCATTTCTGGGACTTTGCTGTGAAAAG,,45.7 ± 1.7
Rv2010 (dsDNA) DNA 1: GAACTCGTGGCCGCCGCACAGCGGATGT DNA 2: ACATCCGCTGTGCGGCGGCCACGAGTTC,,637 ± 16
lipF -572 (dsDNA) DNA 1: AGACGTACAGCAAACTCCCAGTCATACA DNA 2: TGTATGACTGGGAGTTTGCTGTACGTCT,,115 ± 8
PPE19 (dsDNA) DNA 1: CCGTTCTCCGGACAATCACGGCCCGACC DNA 2: GGTCGGGCCGTGATTGTCCGGAGAACGG,no binding,
Rv1217c (dsDNA) DNA 1: GAGGTCGCAGCCGAGCAACAGGTGGCAA DNA 2: TTGCCACCTGTTGCTCGGCTGCGACCTC,,588 ± 17
devR -146 (dsDNA) DNA 1: CGTCATCTGGCCGCCAACGCAAAGCCGGGTCA DNA 2: TGACCCGGCTTTGCGTTGGCGGCCAGATGACG,no binding,
umaA (dsDNA) DNA 1: TGACGCAAGGCGAGATCACAGACCGAGA DNA 2: TCTCGGTCTGTGATCTCGCCTTGCGTCA,,1200 ± 58
Rv1639c (dsDNA) DNA 1: CGGATCACAGGAAACCCCCAACAAATCA DNA 2: TGATTTGTTGGGGGTTTCCTGTGATCCG,,198 ± 12
hsp (dsDNA) DNA 1: CCGGACACAGCTAACTCACAACGAAGCA DNA 2: TGCTTCGTTGTGAGTTAGCTGTGTCCGG,,51.5 ± 4.3
icl -400 (dsDNA) DNA 1: TCATCTCCCACGTTCACCCGGCTGGTTCG DNA 2: CGAACCAGCCGGGTGAACGTGGGAGATGA,no binding,
nuoA -63 (dsDNA) DNA 1: GTCACGGCAGCCCGGTCACCGCCCGGCC DNA 2: GGCCGGGCGGTGACCGGGCTGCCGTGAC,no binding,
Rv2633c (dsDNA) DNA 1: TGATTCACAGCTACCTCACATTAATGGG DNA 2: CCCATTAATGTGAGGTAGCTGTGAATCA,,37 ± 3.7
phoP -42 (dsDNA) DNA 1: ACGAGCTTTCAGGAATTACACAATGACTGTG DNA 2: CACAGTCATTGTGTAATTCCTGAAAGCTCGT,no binding,
cdh (dsDNA) DNA 1: GCGAGCAGGGCTGCCGCACAGCGATCTT DNA 2: AAGATCGCTGTGCGGCAGCCCTGCTCGC,,935 ± 52
pks3 -653 (dsDNA) DNA 1: GGCGGCCCACTGCGCCTGCACCGCCGTGTTGG DNA 2: CCAACACGGCGGTGCAGGCGCAGTGGGCCGCC,no binding,
devR -155 (dsDNA) DNA 1: GTGCGTGCCGTCATCTGGCCGCCAACGCAA DNA 2: TTGCGTTGGCGGCCAGATGACGGCACGCAC,no binding,
Rv2331 (dsDNA) DNA 1: GTCCTCGCAGCAAGAAAACAGCGAAAGC DNA 2: GCTTTCGCTGTTTTCTTGCTGCGAGGAC,,130 ± 6.1
nuoA -52 (dsDNA) DNA 1: CCGGTCACCGCCCGGCCGCCGCGCTGGC DNA 2: GCCAGCGCGGCGGCCGGGCGGTGACCGG,no binding,
ptrBa -162 (dsDNA) DNA 1: TTGTCCGCAGCTGGCTCACCGGCTCCGA DNA 2: TCGGAGCCGGTGAGCCAGCTGCGGACAA,,980 ± 77
lipF -214 (dsDNA) DNA 1: GGGCTCCCATCGAGATCACCGAAAGCGG DNA 2: CCGCTTTCGGTGATCTCGATGGGAGCCC,no binding,
wbbL2 (dsDNA) DNA 1: TGGATCGCTGCCGATACACCGCCGATTT DNA 2: AAATCGGCGGTGTATCGGCAGCGATCCA,no binding,
